Data: patent US20200268855

Molecular target: T1, ALDH1A2-His6 (UniProt O94788)
T1 sequence: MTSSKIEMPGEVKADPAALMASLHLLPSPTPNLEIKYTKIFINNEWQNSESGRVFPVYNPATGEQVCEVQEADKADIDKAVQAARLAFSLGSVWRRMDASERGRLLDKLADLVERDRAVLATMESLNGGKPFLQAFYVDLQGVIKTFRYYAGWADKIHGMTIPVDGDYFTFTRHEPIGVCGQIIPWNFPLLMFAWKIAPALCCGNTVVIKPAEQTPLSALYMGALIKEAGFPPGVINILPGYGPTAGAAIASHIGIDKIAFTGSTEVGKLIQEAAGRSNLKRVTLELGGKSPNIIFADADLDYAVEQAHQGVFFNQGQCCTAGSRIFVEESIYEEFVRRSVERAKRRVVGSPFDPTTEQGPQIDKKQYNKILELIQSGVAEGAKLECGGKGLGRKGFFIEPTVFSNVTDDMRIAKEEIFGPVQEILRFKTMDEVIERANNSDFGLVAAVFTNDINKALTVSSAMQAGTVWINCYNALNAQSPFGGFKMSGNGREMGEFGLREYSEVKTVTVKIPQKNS

## human UBE3A protein
  ubiquitination of ALDH1A2 in the reconstituted bacterial ubiquitination system (immunoblot): the ALDH1A2 protein was highly ubiquitinated in the presence of UBE3A protein
